Data on 2 molecules can be found in patent USRE46376 (Wyeth LLC, dated 2017).

Assay [1] addresses wild-type C. difficile toxin B (TcdB) (Clostridium difficile strain 630, UniProt P18177 2-2366). As to the kind of experiment: binding specificity, Table 18.
Assay [2] addresses Commercial, Control Toxin B wt (List Biologicals) (Clostridium difficile, UniProt P18177 2-2366). Description: dot blot, non-denaturing conditions.

Sequence of Commercial, Control Toxin B wt (List Biologicals) (P18177 2-2366 limits assumed): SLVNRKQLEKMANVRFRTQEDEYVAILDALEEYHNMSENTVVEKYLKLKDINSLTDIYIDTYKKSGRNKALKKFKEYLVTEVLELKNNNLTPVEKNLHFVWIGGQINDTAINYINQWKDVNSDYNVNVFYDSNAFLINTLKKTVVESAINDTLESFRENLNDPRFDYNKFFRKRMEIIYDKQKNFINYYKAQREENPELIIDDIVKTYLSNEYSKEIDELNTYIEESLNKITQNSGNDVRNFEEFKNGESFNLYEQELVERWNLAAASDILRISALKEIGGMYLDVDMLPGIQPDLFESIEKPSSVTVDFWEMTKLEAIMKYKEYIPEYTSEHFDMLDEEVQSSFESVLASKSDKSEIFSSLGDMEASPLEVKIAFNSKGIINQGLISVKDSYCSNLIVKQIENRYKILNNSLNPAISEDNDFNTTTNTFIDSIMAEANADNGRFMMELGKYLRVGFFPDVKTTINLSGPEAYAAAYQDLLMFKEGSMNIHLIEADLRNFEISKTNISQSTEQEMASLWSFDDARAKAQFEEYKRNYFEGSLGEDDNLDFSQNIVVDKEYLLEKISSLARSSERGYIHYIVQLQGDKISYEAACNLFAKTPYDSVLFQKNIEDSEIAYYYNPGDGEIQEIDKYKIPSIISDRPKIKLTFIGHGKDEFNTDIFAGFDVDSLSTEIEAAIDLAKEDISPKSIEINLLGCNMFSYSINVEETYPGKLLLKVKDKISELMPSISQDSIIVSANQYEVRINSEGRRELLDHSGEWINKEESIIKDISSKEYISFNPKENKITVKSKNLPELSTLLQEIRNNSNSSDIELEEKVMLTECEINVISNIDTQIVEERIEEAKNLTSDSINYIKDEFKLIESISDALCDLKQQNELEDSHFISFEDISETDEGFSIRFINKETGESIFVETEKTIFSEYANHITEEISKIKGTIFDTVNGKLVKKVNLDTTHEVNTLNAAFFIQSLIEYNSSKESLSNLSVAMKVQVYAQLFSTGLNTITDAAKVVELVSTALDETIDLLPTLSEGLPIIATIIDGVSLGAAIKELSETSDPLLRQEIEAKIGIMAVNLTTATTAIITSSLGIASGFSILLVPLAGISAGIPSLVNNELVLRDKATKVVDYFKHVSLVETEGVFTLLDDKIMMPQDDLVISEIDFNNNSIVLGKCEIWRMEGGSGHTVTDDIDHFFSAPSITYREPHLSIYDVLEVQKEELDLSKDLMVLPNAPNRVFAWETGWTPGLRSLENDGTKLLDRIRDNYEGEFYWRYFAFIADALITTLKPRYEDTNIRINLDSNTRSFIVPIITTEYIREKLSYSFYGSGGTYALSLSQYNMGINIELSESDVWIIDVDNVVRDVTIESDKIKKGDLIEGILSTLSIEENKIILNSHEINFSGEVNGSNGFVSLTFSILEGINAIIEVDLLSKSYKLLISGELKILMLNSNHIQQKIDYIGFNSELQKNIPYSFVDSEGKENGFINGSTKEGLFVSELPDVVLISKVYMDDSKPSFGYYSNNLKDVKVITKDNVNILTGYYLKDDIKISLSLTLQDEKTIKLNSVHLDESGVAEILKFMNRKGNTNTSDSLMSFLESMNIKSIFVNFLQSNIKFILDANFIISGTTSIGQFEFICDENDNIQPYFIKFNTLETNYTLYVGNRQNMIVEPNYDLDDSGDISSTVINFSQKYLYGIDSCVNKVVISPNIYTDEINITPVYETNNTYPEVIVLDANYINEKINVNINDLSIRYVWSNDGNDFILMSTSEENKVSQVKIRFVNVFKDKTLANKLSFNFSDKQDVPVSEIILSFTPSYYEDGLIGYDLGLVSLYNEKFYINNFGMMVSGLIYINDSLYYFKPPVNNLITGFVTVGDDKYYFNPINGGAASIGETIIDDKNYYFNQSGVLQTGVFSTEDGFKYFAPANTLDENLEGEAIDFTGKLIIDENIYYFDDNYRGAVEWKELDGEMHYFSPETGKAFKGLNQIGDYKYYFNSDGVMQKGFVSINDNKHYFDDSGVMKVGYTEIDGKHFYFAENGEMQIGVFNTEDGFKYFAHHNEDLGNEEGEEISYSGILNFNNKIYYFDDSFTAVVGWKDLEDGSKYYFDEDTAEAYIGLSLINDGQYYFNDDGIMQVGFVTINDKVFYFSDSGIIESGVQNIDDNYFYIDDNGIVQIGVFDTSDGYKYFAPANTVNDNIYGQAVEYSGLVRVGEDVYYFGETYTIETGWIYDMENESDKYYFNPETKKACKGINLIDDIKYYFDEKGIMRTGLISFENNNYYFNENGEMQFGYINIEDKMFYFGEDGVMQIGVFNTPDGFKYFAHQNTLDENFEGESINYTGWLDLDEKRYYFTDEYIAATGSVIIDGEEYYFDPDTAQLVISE
Sequence of wild-type C. difficile toxin B (TcdB) (P18177 2-2366 limits assumed): as above

B1: B9-30 mAb (antibody, V domains shown)
VH: QVQLQQPGAEVVKPGAPVKLSCKASGYPFTNYWMNWVKQRPGRGLEWIGRIDPSNSEIYYNQKFKDKATLTVDKSSSTAYIQLSSLTSEDSAVYYCASGHYGSIFAYWGQGTTLTVSS
VL: VQITQSPSYLAASPGETITINCRASKSISKYLAWYQEKPGKTNKLLIYSGSTLQSGIPSRFSGSRSGTDFTLIISSLEPEDSAMYYCQQHNEYPLTFGAGTKLELKR
With B1, the binding result in assay [1] is given as “binds”.

B2: B9-30 mAb (C. difficile TcdB neutralizing antibody) (antibody, V domains shown)
VH: QVQLQQPGAEVVKPGAPVKLSCKASGYPFTNYWMNWVKQRPGRGLEWIGRIDPSNSEIYYNQKFKDKATLTVDKSSSTAYIQLSSLTSEDSAVYYCASGHYGSIFAYWGQGTTLTVSS
VL: VQITQSPSYLAASPGETITINCRASKSISKYLAWYQEKPGKTNKLLIYSGSTLQSGIPSRFSGSRSGTDFTLIISSLEPEDSAMYYCQQHNEYPLTFGAGTKLELKR
Regarding B2, in assay [2], the binding result was “binds”.
